We go through two compounds from paper PMC8519434, “The structure of nontypeable Haemophilus influenzae SapA in a closed conformation reveals a constricted ligand-binding cavity and a novel RNA binding motif” (PLoS ONE, 2021).

One data set addresses T1, SapA (Haemophilus influenzae, UniProt Q4QL73).
T1 construct: residues 33 to 560, without the predicted signal peptide
Description: ITC (stoichiometry fixed to […]), crystal structure by hemin soaking ([…] Å), native PAGE shift. The format is binding.

Data set [1] deals with T2, SapA (nontypeable Haemophilus influenzae 86-028NP) (UniProt Q4QL73).
T2 sequence: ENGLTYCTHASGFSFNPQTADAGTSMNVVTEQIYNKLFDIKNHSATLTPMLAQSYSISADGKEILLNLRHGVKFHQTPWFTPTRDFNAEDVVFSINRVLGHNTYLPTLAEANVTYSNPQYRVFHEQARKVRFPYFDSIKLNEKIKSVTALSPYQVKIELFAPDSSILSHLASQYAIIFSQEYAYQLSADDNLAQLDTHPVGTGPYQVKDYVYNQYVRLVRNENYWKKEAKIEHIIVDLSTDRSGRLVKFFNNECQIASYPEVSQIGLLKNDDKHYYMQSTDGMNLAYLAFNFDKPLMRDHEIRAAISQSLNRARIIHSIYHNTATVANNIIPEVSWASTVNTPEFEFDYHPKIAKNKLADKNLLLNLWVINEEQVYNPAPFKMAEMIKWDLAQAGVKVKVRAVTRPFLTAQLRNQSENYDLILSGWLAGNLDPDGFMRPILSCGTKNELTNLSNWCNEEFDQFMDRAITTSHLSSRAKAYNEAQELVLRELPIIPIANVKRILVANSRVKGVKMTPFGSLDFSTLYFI
Description: EMSA (agarose, decrease of rRNA bands). (In general: Mobility shift assays separate free from complexed probe on a gel.)

Data set [2] concerns SapA Q85S R101S (nontypeable Haemophilus influenzae 86-028NP). Description: EMSA (agarose, decrease of rRNA bands).
Data set [3] relates to SapA R101S (nontypeable Haemophilus influenzae 86-028NP). Description: EMSA (agarose, decrease of rRNA bands).

Broadly, the Kd is the equilibrium constant for the complex coming apart. Consider `C=CC1=C(C)C2=Cc3c(C=C)c(C)c4[n]3[Fe][n]3c(c(C)c(CCC(=O)O)c3=CC3=NC(=C4)C(C)=C3CCC(=O)O)=CC1=N2` [heme], for which the dissociation constant Kd at SapA stood at 282 ± 18.3 µM.
Regarding “E. coli DH5alpha rRNA (16S + 23S bands of total RNA)”, the figures for the dissociation constant Kd in data set [1], in data set [2] and in data set [3] were 4.4 µM, 23 µM and 7.7 µM, respectively.
